Results published in patent US20140335539A1.

Legend:
p62(PB1)-p53 = assay: cell-based or functional assay
p62(PB1)-FKBP12 = assay: cell-based or functional assay

| IC50 of Nutlin-3, total luminance of fluorescent foci per cell (stable CHO-K1 line) (p62(PB1)-p53) | IC50 of FK506 in the presence of 20 nM rapamycin, total fluorescence intensity of fluorescent foci per cell (stable HeLaS3 line) (p62(PB1)-FKBP12) | Substance |
| --- | --- | --- |
| 8.9 µM | – | AG-MDM2 |
| – | 0.68 µM | mTOR(FRB)-AG |
